2 molecules from patent US20170314036A1 (AGRESEARCH, published 2017) can be followed below.

Experiment [1] has as its target T1, Y2H PPD1-AD (Arabidopsis PPD1 full length with N-terminal GAL4 activation domain; pDEST22-PPD1) (Arabidopsis).
T1 construct: Prey fusion in yeast; The legend says only 'PPD'; also called PPD1 fused to AD
T1 chain: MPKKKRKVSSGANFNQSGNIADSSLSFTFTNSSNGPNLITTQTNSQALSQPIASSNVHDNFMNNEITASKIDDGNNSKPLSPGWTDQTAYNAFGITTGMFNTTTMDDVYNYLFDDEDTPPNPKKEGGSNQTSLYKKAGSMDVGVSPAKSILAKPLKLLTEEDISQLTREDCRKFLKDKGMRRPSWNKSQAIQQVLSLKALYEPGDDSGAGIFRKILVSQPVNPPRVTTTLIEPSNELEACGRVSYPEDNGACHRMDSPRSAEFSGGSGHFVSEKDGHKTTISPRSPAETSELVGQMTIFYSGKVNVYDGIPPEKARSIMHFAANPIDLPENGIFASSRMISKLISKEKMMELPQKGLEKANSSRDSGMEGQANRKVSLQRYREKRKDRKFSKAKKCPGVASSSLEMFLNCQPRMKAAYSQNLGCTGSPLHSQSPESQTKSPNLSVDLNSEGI
Put plainly: yeast two-hybrid (legend of FIG. 6). As to the method: (§1) The ProQuest two-hybrid system (Invitrogen) was used to analyse interactions between PPD1, NINJA, TPL, and BZR1. Combinations of bait and prey constructs were used to co-transform yeast strain MaV203 (Invitrogen), with selection on synthetic dropout (SD) SD/-Leu/-Trp agar plates. Transformed strains were tested for interactions using 10 μl droplets of 1 in 10 and 1 in 100 dilutions on SD/-Leu/-Trp/-His plates with different concentrations of 3-aminotriazol (3-AT) (Sigma).

Experiment [2] deals with T2, Y2H NINJA-AD (Arabidopsis NINJA, At4g28910, full length, with N-terminal GAL4 activation domain); … (Arabidopsis).
T2 construct: Prey fusion in yeast; also called NINJA fused to AD
T2 chain: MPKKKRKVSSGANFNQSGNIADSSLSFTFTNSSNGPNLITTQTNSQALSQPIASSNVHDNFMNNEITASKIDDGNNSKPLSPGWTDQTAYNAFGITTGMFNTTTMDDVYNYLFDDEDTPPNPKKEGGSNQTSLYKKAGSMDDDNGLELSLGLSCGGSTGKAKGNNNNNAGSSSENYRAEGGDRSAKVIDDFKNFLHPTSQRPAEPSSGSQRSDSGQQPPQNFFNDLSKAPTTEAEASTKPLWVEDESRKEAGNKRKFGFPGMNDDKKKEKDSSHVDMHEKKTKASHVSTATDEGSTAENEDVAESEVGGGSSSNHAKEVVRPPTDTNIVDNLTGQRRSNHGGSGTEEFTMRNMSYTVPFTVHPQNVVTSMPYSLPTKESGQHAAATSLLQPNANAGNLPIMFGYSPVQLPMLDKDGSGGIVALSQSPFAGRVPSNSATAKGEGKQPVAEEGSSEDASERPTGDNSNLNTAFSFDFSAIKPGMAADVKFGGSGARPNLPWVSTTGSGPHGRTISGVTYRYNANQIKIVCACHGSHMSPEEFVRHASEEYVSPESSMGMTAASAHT
Nature of the experiment: yeast two-hybrid (legend of FIG. 7). As to the method:
as §1

Experiment [3] addresses T3, Y2H BZR1-AD (Arabidopsis BZR1, At1g75080, full length, with N-terminal GAL4 activation domain; pDEST22-BZR1) (Arabidopsis).
T3 construct: Prey fusion in yeast; also called BZR1 fused to AD; Brassinazole Resistant 1
T3 chain: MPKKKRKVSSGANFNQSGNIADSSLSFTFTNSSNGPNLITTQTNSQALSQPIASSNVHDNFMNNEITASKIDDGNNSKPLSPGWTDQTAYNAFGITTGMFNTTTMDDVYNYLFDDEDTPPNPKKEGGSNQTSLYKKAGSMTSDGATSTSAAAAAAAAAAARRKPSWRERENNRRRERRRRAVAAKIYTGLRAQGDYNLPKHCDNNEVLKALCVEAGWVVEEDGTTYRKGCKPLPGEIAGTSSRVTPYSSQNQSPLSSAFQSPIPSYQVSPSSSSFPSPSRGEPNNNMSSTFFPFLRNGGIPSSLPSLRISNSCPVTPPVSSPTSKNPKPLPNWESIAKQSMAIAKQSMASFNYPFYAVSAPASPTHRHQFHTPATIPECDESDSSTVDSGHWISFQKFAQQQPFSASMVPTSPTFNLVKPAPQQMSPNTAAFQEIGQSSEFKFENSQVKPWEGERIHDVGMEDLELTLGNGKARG
Nature of the experiment: yeast two-hybrid (ProQuest, MaV203, SD/-Leu/-Trp/-His with 3-AT). As for the experimental part:
as §1

The target of experiment [4] is T4, Y2H RGA1-AD (DELLA protein RGA1 with GAL4 activation domain).
T4 construct: Prey fusion in yeast, tested with PPD1-DBD as bait
T4 chain: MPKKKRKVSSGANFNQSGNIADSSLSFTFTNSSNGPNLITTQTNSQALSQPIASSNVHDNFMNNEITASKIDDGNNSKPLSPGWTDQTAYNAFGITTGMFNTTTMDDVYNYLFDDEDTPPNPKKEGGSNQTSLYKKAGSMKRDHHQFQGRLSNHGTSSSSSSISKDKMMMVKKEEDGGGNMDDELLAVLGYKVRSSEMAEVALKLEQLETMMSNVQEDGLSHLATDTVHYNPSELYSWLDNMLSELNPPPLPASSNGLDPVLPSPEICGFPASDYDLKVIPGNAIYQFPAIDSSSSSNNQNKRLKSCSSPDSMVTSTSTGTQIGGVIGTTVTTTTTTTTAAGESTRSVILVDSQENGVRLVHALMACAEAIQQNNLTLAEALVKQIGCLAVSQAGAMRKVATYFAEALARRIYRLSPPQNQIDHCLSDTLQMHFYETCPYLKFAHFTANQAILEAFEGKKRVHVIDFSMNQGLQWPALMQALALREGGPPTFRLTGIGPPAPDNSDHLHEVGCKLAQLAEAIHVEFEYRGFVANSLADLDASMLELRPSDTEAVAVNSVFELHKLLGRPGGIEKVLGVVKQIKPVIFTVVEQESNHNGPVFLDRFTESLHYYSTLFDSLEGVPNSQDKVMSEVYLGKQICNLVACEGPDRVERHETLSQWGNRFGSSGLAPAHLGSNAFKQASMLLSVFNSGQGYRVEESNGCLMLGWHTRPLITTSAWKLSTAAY
Put plainly: yeast two-hybrid, PPD1-DBD as bait, selective medium with 15 mM 3AT. The source says: The ProQuest two-hybrid system (Invitrogen) was used to analyse interactions between PPD1, and RGA1. Full length coding sequences of PPD1, together with truncation or deletion derivatives of PPD1 (PPD1Δppd, PPD1Δtify, and PPD1Δjas*) (FIG. 5), were Gateway sub-cloned into pDEST32 (N-terminal GAL4DBD) or pDEST22 (N-terminal GAL4AD). When translated these generated the following peptide sequences: 55, 65, 66, 67, 68, 7169, which are PPD1-DBD, RGA1, RGA1-AD, PPD1-ppd-DBD, PPD1-tify-DBD, PP1-jas*-DBD respectively.
Combinations of bait and prey constructs were used to co-transform yeast strain MaV203 (Invitrogen), with selection on synthetic dropout (SD) SD/-Leu/-Trp agar plates. Transformed strains were tested for interactions using 10 μl droplets of 1 in 10 and 1 in 100 dilutions on SD/-Leu/-Trp/-His plates with different concentrations of 3-aminotriazol (3-AT) (Sigma). The PPD1-RGA1 interaction was tested with PPD1-DBD used as bait. Transformed yeast was spotted as a ten-fold dilution on control medium (−2) or selective medium (−3) with 15 mM 3AT. Controls were empty vectors, DBD, GAL4 DNA binding domain, AD, GAL4 activation domain (FIG. 5).

Experiment [5] concerns the target T2, Y2H NINJA-AD (Arabidopsis NINJA, …). Nature of the experiment: yeast two-hybrid (legend of FIG. 6). As for the experimental part:
as §1

In experiment [6] the target is T3, Y2H BZR1-AD (Arabidopsis BZR1, …). Nature of the experiment: yeast two-hybrid (legend of FIG. 7). As for the experimental part:
as §1

B1: Y2H PPD1-DBD (Arabidopsis PPD1, At4g14713, full length, with N-terminal GAL4 DNA binding domain; pDEST32-PPD1) (other)
chain: MKLLSSIEEACNICRLKKLKCSKEKPKCAKCLKNNWECRYSPKTKRSPLTRAHLTEVESRLERLEQLFLLIFPRENLNMILKMDSLQDIKALLTGLFVQDNVNKDAVTDRLASVETDMPLTLRQHRISATSSSEESSNKGQRQLTVSSRSNQTSLYKKAGSMDVGVSPAKSILAKPLKLLTEEDISQLTREDCRKFLKDKGMRRPSWNKSQAIQQVLSLKALYEPGDDSGAGIFRKILVSQPVNPPRVTTTLIEPSNELEACGRVSYPEDNGACHRMDSPRSAEFSGGSGHFVSEKDGHKTTISPRSPAETSELVGQMTIFYSGKVNVYDGIPPEKARSIMHFAANPIDLPENGIFASSRMISKLISKEKMMELPQKGLEKANSSRDSGMEGQANRKVSLQRYREKRKDRKFSKAKKCPGVASSSLEMFLNCQPRMKAAYSQNLGCTGSPLHSQSPESQTKSPNLSVDLNSEGI
notes: Bait fusion expressed in yeast strain MaV203 (ProQuest two-hybrid system); also called PPD1 fused to DBD; PPD1 bait
Regarding B1, the binding result in experiment [1] is listed as “binds”; in experiment [2], “binds”; in experiment [3] it was “no binding”; in experiment [4], “binds”.

B2: Y2H TPL-DBD (Arabidopsis TOPLESS, At1g15750, full length, with N-terminal GAL4 DNA binding domain; pDEST32-TPL) (other)
chain: MKLLSSIEEACNICRLKKLKCSKEKPKCAKCLKNNWECRYSPKTKRSPLTRAHLTEVESRLERLEQLFLLIFPRENLNMILKMDSLQDIKALLTGLFVQDNVNKDAVTDRLASVETDMPLTLRQHRISATSSSEESSNKGQRQLTVSSRSNQTSLYKKAGSMSSLSRELVFLILQFLDEEKFKETVHKLEQESGFFFNMKYFEDEVHNGNWDEVEKYLSGFTKVDDNRYSMKIFFEIRKQKYLEALDKHDRPKAVDILVKDLKVFSTFNEELFKEITQLLTLENFRENEQLSKYGDTKSARAIMLVELKKLIEANPLFRDKLQFPTLRNSRLRTLINQSLNWQHQLCKNPRPNPDIKTLFVDHSCGPPNGARAPSPVNNPLLGGIPKAGGFPPLGAHGPFQPTASPVPTPLAGWMSSPSSVPHPAVSAGAIALGGPSIPAALKHPRTPPTNASLDYPSADSEHVSKRTRPMGISDEVNLGVNMLPMSFSGQAHGHSPAFKAPDDLPKTVARTLSQGSSPMSMDFHPIKQTLLLVGTNVGDIGLWEVGSRERLVQKTFKVWDLSKCSMPLQAALVKEPVVSVNRVIWSPDGSLFGVAYSRHIVQLYSYHGGEDMRQHLEIDAHVGGVNDISFSTPNKQLCVITCGDDKTIKVWDAATGVKRHTFEGHEAPVYSVCPHYKENIQFIFSTALDGKIKAWLYDNMGSRVDYDAPGRWCTTMAYSADGTRLFSCGTSKDGESFIVEWNESEGAVKRTYQGFHKRSLGVVQFDTTKNRYLAAGDDFSIKFWDMDAVQLLTAIDGDGGLQASPRIRFNKEGSLLAVSGNENVIKIMANSDGLRLLHTFENISSESSKPAINSIAAAAAAAATSAGHADRSANVVSIQGMNGDSRNMVDVKPVITEESNDKSKIWKLTEVSEPSQCRSLRLPENLRVAKISRLIFTNSGNAILALASNAIHLLWKWQRNERNATGKATASLPPQQWQPASGILMTNDVAETNPEEAVPCFALSKNDSYVMSASGGKISLFNMMTFKTMATFMPPPPAATFLAFHPQDNNIIAIGMDDSTIQIYNVRVDEVKSKLKGHSKRITGLAFSNVLNVLVSSGADAQLCVWNTDGWEKQRSKVLPLPQGRPNSAPSDTRVQFHQDQAHFLVVHETQLAIYETTKLECMKQWAVRESLAPITHATFSCDSQLVYASFMDATVCVFSSANLRLRCRVNPSAYLPASLSNSNVHPLVIAAHPQEPNMFAVGLSDGGVHIFEPLESEGKWGVAPPAENGSASGAPTAPSVGASASDQPQR
notes: Bait fusion in yeast; also called TPL fused to DBD
For the molecule B2, the binding result in experiment [5] and in experiment [6] was “binds” in each case.
